Experiments:
rat GALR3 receptor (rat) [1] = assay: displacement of porcine 125I-galanin, membranes of stable cell line 293-rGalR3-105
rat GALR1 receptor (rat) = assay: displacement of porcine 125I-galanin, membranes of transiently transfected COS-7 cells
rat GALR3 receptor (rat) [2] = assay: as above
rat GALR3 receptor (rat) [3] = assay: displacement of porcine 125I-galanin, rat GalR3 transiently expressed in COS-7 membranes
[4] = target: human GALR3 receptor (human) (UniProt O60755); assay: cell-based or functional assay
Sequence of human GALR3 receptor (human) (O60755 whole entry, form in doubt): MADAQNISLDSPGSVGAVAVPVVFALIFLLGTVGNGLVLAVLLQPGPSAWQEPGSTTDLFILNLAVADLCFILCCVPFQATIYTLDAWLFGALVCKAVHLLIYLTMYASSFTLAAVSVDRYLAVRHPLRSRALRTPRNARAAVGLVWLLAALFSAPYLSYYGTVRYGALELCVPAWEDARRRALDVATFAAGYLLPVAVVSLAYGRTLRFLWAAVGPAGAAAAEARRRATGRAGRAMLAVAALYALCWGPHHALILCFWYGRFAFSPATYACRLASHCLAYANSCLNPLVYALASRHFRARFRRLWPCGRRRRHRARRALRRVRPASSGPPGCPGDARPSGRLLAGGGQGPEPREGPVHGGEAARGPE

rat GALR3 receptor (rat) [5] = assay: apparent binding affinity, rat GalR3 in COS-7 (repeats Table 4)
[6] = target: human GALR3 receptor (human) (UniProt O60755); assay: displacement of porcine 125I-galanin, membranes of stable LM(tk-) line L-hGalR3-228
rat GALR2 receptor (rat) = rat GALR2 receptor (rat) (UniProt O08726); assay: displacement of porcine 125I-galanin, membranes of transiently transfected COS-7 cells
Sequence of rat GALR2 receptor (rat) (O08726 whole entry): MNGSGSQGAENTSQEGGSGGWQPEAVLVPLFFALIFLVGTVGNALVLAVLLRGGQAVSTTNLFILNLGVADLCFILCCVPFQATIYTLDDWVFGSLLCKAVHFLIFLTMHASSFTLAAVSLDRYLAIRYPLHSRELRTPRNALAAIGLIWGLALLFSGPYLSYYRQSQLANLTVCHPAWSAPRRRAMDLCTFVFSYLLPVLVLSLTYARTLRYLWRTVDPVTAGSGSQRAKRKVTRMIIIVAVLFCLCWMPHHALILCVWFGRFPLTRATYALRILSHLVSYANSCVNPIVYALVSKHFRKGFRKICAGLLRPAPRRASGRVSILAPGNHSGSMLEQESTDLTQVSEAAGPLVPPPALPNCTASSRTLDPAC

Row | Ki (rat GALR3 receptor (rat) [1]) | Ki (rat GALR1 receptor (rat)) | Ki (rat GALR3 receptor (rat) [2]) | Ki (rat GALR3 receptor (rat) [3]) | Oocyte EC50 (stimulation of GIRKs) [4] | Ki (rat GALR3 receptor (rat) [5]) | Ki [6] | Ki (rat GALR2 receptor (rat)) | Substance
1 | 9.6 nM | 16 nM | 68 nM | 23 nM | 343 nM | 23 nM |  |  | C7 (peptide)
2 |  |  | > 1000 nM |  |  |  |  |  | D-Trp2-galanin 1-16 (peptide)
3 |  |  | > 1000 nM |  |  |  |  |  | D-Trp2-galanin 1-29 (peptide)
4 | 3.2 nM | 0.33 nM | 6.7 nM | 3.7 nM |  |  | 7.8 nM | 0.57 nM | M35 (peptide)
5 |  |  |  |  | 1910 nM |  |  |  | galanin -7 to +29 (peptide)
6 |  | 9.5 nM | 18 nM | 9 nM |  |  |  | 2 nM | galantide (peptide)

Reference: US20010009766A1
